Source: article PMC8489103, “The collagen structure of C1q induces wound healing by engaging discoidin domain receptor 2” (Molecular Medicine, 2021)
Where no end group is shown, it is not given here. The star is where a group is joined. Biotin = O=C1N[C@H]2[C@H](CS[C@H]2CCCCC(=O)*)N1

T1: NS0-derived recombinant mouse DDR2-Fc chimera protein (mouse, UniProt Q62371 24-399)
T1 construct: discoidin domain receptor 2 (DDR2), mouse, ectodomain Gln24-Arg399; also called 7479-DR; source: bought: R&D Systems (7479-DR), NS0-derived; not shown: Fc (mouse IgG2A, Glu98-Lys330), C-terminal, kept
T1 sequence (looked up): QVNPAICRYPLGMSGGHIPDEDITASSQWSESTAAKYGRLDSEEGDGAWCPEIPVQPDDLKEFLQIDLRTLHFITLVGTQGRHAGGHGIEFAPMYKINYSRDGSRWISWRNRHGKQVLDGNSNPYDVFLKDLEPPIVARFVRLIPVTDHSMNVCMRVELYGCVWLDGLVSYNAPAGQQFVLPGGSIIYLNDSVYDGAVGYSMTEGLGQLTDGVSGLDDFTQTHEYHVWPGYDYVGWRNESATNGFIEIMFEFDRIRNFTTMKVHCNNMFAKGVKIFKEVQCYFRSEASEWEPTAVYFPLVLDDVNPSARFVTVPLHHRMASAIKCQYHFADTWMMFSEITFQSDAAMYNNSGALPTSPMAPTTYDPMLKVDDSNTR

B1: Recombinant human DDR2 possessing the ectodomain of DDR2 (Gln24-Arg399) with 6 × His-tag on C-terminal (domain or fragment, UniProt Q16832 24-399, looked up)
chain: QVNPAICRYPLGMSGGQIPDEDITASSQWSESTAAKYGRLDSEEGDGAWCPEIPVEPDDLKEFLQIDLHTLHFITLVGTQGRHAGGHGIEFAPMYKINYSRDGTRWISWRNRHGKQVLDGNSNPYDIFLKDLEPPIVARFVRFIPVTDHSMNVCMRVELYGCVWLDGLVSYNAPAGQQFVLPGGSIIYLNDSVYDGAVGYSMTEGLGQLTDGVSGLDDFTQTHEYHVWPGYDYVGWRNESATNGYIEIMFEFDRIRNFTTMKVHCNNMFAKGVKIFKEVQCYFRSEASEWEPNAISFPLVLDDVNPSARFVTVPLHHRMASAIKCQYHFADTWMMFSEITFQSDAAMYNNSEALPTSPMAPTTYDPMLKVDDSNTR
notes: discoidin domain receptor 2 (DDR2), human, ectodomain Gln24-Arg399; also called sDDR2; sDDR; source: bought: R&D Systems (2538-DR); not shown: 6xHis, C-terminal, kept

Legend:
Settings in all cases: both partners purified
[1] = target: B1; test: ELISA; C1qA peptide or control peptide coated at 8 μg/mL; sDDR2 (0.1, 0.5, 2, 8 μg/mL) added, RT, 2 h; detected with AP-conjugated anti-6x-His
[2] = target: T1, NS0-derived recombinant mouse DDR2-Fc …; test: far-Western, overlay or dot blot; DDR2-Fc, DDR1-Fc or Fc (20 μg per spot) blotted on nitrocellulose; biotinylated C1qA peptide (200 nM) in 3% skim milk, RT, 2 h; detected with streptavidin
[3] = target: T2, human C1q protein (human, UniProt P02745 23-245; P02746 28-253; P02747 29-245); test: SPR; Biacore 3000; sDDR2 immobilised on CM5 chip; C1q 0, 2.5, 5, 10, 20, 40 μg/mL as analyte; 10 mM HEPES pH 7.4, 25 °C, 10 μL/min
T2 construct: complement C1q subcomponent subunit A, human; complement C1q subcomponent subunit B, human; complement C1q subcomponent subunit C, human; the bought protein is purified from human serum; source: bought: Sigma-Aldrich (C1740); for stimulation of cells Complement Technologies (A099); copies: + +
T2 sequence (P02745 23-245, chain 1 of 3): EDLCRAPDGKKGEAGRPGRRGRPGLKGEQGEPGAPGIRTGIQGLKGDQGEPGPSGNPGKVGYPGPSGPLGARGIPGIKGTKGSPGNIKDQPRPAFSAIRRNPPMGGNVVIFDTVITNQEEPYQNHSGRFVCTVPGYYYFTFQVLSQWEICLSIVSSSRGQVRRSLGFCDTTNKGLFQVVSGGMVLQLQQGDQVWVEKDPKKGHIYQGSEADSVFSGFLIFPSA
T2 sequence (P02746 28-253, chain 2 of 3): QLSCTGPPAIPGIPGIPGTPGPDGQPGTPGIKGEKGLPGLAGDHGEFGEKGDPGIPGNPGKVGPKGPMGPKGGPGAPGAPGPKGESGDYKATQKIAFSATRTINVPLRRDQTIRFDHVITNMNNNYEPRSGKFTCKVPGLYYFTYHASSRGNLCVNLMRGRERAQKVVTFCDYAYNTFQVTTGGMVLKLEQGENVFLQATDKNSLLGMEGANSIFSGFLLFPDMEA
T2 sequence (P02747 29-245, chain 3 of 3): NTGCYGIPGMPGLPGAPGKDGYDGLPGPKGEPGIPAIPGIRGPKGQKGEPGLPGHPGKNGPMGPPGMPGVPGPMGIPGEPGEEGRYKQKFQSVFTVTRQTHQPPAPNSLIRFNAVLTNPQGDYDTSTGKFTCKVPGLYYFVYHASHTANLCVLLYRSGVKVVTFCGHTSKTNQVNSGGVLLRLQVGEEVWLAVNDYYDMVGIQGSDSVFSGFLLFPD

binding result [1] | binding result [2] | Kd [3] [nM] | Binder
binds | binds | – | Biotin-GSKGEQGEPGAPGI (first two residues of the printed peptide; also called C1q collagen tail peptide; biotinylated C1qA peptide; source: synthetic peptide (GenScript)) [C1qA peptide (Biotin-GSKGEQGEPGAPGI)]
– | – | 183 | B1
